Biological target: T1, endogenous MFN2 in WT mouse embryonic fibroblasts (MEFs) (mouse, UniProt Q80U63 1-757)
T1 construct: Detected in situ by proximity ligation assay; also called mitofusin-2
T1 sequence (looked up): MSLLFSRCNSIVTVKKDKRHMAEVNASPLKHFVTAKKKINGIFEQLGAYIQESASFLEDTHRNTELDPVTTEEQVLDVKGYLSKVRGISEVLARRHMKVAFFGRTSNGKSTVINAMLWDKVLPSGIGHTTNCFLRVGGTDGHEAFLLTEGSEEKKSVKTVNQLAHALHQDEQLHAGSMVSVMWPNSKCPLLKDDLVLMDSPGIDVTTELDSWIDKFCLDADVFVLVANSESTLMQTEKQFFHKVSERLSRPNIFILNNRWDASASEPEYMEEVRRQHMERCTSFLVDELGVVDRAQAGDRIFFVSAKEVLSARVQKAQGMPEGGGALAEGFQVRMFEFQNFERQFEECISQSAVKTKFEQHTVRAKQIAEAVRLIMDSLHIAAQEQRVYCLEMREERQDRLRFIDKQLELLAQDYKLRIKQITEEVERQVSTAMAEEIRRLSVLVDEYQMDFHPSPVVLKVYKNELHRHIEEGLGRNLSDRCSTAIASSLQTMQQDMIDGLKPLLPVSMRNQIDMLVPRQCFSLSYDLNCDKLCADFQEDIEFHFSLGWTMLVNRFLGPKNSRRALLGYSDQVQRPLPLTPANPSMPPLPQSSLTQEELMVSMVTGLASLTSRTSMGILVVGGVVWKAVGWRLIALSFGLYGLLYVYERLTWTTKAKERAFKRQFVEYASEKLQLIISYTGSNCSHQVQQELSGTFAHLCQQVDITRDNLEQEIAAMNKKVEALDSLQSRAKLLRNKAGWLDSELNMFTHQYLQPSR
Test: proximity ligation assay of MFN2 and ATAT1 in WT MEFs

binding result: binds
B1: endogenous ATAT1 in WT mouse embryonic fibroblasts (MEFs) (enzyme, UniProt Q8K341 1-421, looked up)
chain: MEFPFDVDALFPERITVLDQHLRPPARRPGTTTPARVDLQQQIMTIVDELGKASAKAQHLPAPITSALRMQSNRHVIYILKDTSARPAGKGAIIGFLKVGYKKLFVLDDREAHNEVEPLCILDFYIHESVQRHGHGRELFQHMLQKERVEPHQLAIDRPSPKLLKFLNKHYNLETTVPQVNNFVIFEGFFAHQHRPPTSSLRATRHSRAAVADPIPAAPARKLPPKRAEGDIKPYSSSDREFLKVAVEPPWPLNRAPRRATPPAHPPPRSSSLGNSPDRGPLRPFVPEQELLRSLRLCPPHPTARLLLATDPGGSPAQRRRTRGTPWGLVAQSCHYSRHGGFNTSFLGTGNQERKQGEQEAEDRSASEDRVLLLDGSGEEPTQTGAPRAQAPPPQSWTVGGDIMNARVIRNLQERRSTRPW
notes: Detected in situ by proximity ligation assay

Source: patent US20260183429A1 (TRUSTEES OF COLUMBIA UNIVERSITY IN THE CITY OF NEW YORK, published 2026)
